Data as given in patent US20260104424A1, “METHODS, SYSTEMS AND KITS FOR IDENTIFYING BIOACTIVE COMPOUNDS AND THERAPEUTIC METHODS AND COMPOSITIONS” (priority 2022, published 2026).
“Also recorded” adds a separate entry of the source.

Legend:
[1] = target: T1, MrgprX4 (Homo sapiens, UniProt Q96LA9); assay: MrgprX4 calcium signaling assay; format: cell-based; set-up: activation of MrgprX4 (agonist activity): dose or concentration left out as unconfirmed
T1 construct: GFP; expressed in transfected cells; host or cells: HEK293-MrgprX4-GFP
T1 sequence (Q96LA9 whole entry): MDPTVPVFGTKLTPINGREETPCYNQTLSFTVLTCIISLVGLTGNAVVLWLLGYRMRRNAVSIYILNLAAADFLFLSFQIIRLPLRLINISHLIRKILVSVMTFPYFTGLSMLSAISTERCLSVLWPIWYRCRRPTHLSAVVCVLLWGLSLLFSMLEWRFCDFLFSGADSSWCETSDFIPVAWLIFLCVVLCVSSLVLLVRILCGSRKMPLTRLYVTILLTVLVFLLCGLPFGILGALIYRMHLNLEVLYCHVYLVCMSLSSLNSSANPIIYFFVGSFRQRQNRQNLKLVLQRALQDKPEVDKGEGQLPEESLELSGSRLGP
Description: The HEK293-MrgprX4-GFP and HEK293 cell lines were dissociated with 0.25% Trypsin (Gibco, Cat No. 25200-056) and collected after 1-2 minutes incubation. The harvested cells were then seeded at a density of 2.5E+04 cells/well in a 96-well half-area flat clear bottom black plate (Greiner Bio-One, Cat No. 675090) that was pre-treated with 0.1 mg/ml poly-D-lysine. The following day, cells were stained with FLIPR Calcium 5 dye (Molecular Devices, Cat No. R8186) in a loading buffer composed of Hanks' balanced salt solution (HBSS) with 20 mM HEPES, adjusted to pH 7.4. After a 30-minute incubation period at 37° C., TFPI (Acro Biosystems Cat No. TFI-H5226) was introduced, and the cells were incubated for an additional hour at 37° C. Subsequently, UDCA or the buffer control were automatically dispensed into the wells, which were immediately imaged using the Flexstation 3 system (Molecular Devices).

[2] = target: T2, EGFR (Homo sapiens, UniProt P00533); assay: Single-round M13 phage library screening against EGFR (Ig-EGFR beads, HEK293T cells overexpressing EGFR); format: binding; details: for identification as hit in screen against Ig-EGFR: AT, MV and secretome libraries, versus Isotype Ig, triplicate; for identification as hit in secretome library screen: beads coated with Ig-EGFR and HEK293T cells overexpressing EGFR
T2 construct: representing the extracellular domain of the target receptor fuse to the Fc region of immunoglobulin G; purchased R&D Systems 344-ER
Description: For the phage immunoprecipitation-based ligand discovery, 1 μg of EGFR-Fc (R&D Systems Cat No. 344-ER) and Etanercept (Mippipore Sigma Cat No. 185243-69-0) chimera proteins, representing the extracellular domain of the target receptor fuse to the Fc region of immunoglobulin G, was incubated with the pre-blocked phage library overnight at 4° C. The following day, 20 μL of protein G beads (ThermoFisher Cat No. 10009D) were added to the phage-chimera mixture and rotated for 4 hours at 4° C. to immunocapture (IP) all chimeras. The beads were then washed three times with PBS containing 0.01% NP-40 and stored in −80° C. before sequencing.

[3] = target: T3, CXCR2 (Homo sapiens, UniProt P25025); assay: M13 phage binding and screening against HEK293T cells overexpressing CXCR2; details: negative control protein on M13 phage
T3 sequence (P25025 1-360): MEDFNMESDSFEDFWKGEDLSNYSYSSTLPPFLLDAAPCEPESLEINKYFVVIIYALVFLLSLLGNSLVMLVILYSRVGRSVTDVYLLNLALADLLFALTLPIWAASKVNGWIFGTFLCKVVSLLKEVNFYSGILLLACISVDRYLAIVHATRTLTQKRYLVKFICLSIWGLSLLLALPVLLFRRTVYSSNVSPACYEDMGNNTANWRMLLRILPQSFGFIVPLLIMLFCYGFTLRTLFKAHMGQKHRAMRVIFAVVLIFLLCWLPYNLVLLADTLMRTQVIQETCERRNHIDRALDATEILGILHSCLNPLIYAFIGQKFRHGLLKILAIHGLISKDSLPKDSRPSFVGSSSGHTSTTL

Substance: tissue factor pathway inhibitor [TFPI]
- activation of MrgprX4 (agonist activity) [1]: does not activate
- inhibition of activation by UDCA ([1]; UDCA (EC80), TFPI at 1 and 0.3 uM, n=7): inhibiting the activation of UDCA
- concentrations down to which UDCA-induced activation of MrgprX4 was effectively inhibited ([1]; calcium-signaling assay): 0.3 µM
- concentration at which MrgprX4 activation was inhibited ([1]; in the presence of the MrgprX4 activator UDCA): 300 nM

Substance: transforming growth factor-A [TGFA]
- identification as hit in screen against Ig-EGFR [2]: rediscovered
- identification as hit in screen against Ig-EGFR ([2]; listed as TGFa): identified
- identification as hit in secretome library screen [2]: robustly identified

Substance: betacellulin [BTC]
- identification as hit in screen against Ig-EGFR [2]: rediscovered; also recorded: identified
- identification as hit in secretome library screen [2]: robustly identified

Substance: heparin binding EGF-like growth factor [HBEGF]
- identification as hit in screen against Ig-EGFR [2]: rediscovered
- identification as hit in screen against Ig-EGFR ([2]; listed as HB-EGF): identified
- identification as hit in secretome library screen [2]: robustly identified

Substance: $-Lactoglobulin: negative control protein displayed on phage in the CXCR2 binding test
- non-specific binding to HEK293T-CXCR2 cells [3]: low non-specific binding

Substance: osteoprotegerin [OPG, reference compound]
- inhibitory activity on MrgprX4 ([1]; negative control protein, 1 uM (n=4)): no obvious inhibitory activity
